T1: HTRA3, P83110
T1 sequence (P83110 354-453, limits assumed, looked up): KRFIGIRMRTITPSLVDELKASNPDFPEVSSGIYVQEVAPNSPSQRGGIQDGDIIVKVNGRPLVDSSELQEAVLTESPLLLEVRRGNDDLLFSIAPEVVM

T2: DFNB31_2, Q9P202
T2 sequence (Q9P202 274-371, limits assumed, looked up): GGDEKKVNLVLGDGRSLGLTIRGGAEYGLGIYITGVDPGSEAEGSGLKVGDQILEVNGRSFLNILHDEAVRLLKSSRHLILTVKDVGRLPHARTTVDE

T3: SNTG1, Q9NSN8
T3 sequence (Q9NSN8 52-150, limits assumed, looked up): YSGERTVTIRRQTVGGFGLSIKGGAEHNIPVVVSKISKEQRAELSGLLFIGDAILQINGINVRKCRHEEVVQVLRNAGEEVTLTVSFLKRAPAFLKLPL

T4: LNX2_2, Q8N448
T4 sequence (Q8N448 334-432, limits assumed, looked up): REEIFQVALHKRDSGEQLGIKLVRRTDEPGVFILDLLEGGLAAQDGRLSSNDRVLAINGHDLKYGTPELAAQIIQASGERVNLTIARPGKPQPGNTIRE

T5: DFNB31_3, Q9P202
T5 sequence (Q9P202 811-907, limits assumed, looked up): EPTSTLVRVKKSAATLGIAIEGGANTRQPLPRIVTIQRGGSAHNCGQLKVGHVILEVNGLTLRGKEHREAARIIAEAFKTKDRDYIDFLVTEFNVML

T6: TJP3_3, O95049
T6 sequence (O95049 375-456, limits assumed, looked up): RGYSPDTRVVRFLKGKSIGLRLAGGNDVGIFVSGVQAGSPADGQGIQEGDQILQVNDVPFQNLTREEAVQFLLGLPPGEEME

T7: ARHGEF11, O15085
T7 sequence (O15085 42-136, limits assumed, looked up): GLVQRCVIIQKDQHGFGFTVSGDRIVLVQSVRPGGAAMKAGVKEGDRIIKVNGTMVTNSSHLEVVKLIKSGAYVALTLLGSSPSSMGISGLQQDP

T8: RAPGEF6, Q8TEU7
T8 sequence (Q8TEU7 525-625, limits assumed, looked up): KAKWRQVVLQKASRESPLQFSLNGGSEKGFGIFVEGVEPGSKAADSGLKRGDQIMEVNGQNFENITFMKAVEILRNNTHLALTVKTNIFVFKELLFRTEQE

T9: SNTB1, Q13884
T9 sequence (Q13884 107-205, limits assumed, looked up): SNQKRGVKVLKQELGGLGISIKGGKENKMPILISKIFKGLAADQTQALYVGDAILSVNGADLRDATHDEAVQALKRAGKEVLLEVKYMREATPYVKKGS

T10: MPDZ_12, O75970
T10 sequence (O75970 1857-1958, limits assumed, looked up): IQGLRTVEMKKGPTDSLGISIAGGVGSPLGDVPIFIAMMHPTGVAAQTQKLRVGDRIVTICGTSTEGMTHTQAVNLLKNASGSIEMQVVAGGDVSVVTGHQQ

T11: APBA3_1, O96018
T11 sequence (O96018 389-490, limits assumed, looked up): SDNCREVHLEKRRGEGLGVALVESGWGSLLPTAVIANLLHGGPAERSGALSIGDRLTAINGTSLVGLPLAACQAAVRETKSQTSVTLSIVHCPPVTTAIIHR


Columns and labels:
Assay in all cases: holdup assay
Parameters in all cases: key: below the threshold = too weak to quantify, mostly under pKd 3.1 to 4
Conditions in all cases: plain residues with an end cap or a label only (N-terminal biotin on a linker: ado-ado)
[1] = target: T1, HTRA3, P83110
[2] = target: SNX27, Q96L92
[3] = target: T2, DFNB31_2, Q9P202
[4] = target: Inadl_10, Q8NI35
[5] = target: NHERF4_2, Q86UT5
[6] = target: T3, SNTG1, Q9NSN8
[7] = target: T4, LNX2_2, Q8N448
[8] = target: T5, DFNB31_3, Q9P202
[9] = target: DLG1_1, Q12959
[10] = target: T6, TJP3_3, O95049
[11] = target: T7, ARHGEF11, O15085
[12] = target: T8, RAPGEF6, Q8TEU7
[13] = target: Inadl_4, Q8NI35
[14] = target: T9, SNTB1, Q13884
[15] = target: PICK1, Q9NRD5
[16] = target: NOS1, P29475
[17] = target: CASK, O14936
[18] = target: PTPN3, P26045
[19] = target: MAGI2_6, Q86UL8
[20] = target: GIPC2, Q8TF65
[21] = target: T10, MPDZ_12, O75970
[22] = target: T11, APBA3_1, O96018
[23] = target: GOPC, Q9HD26
[24] = target: DLG1_2, Q12959
[25] = target: SCRIB_1, Q14160
[26] = target: IL16_3, Q14005
[27] = target: TJP1_3, Q07157
TJP1_3, Q07157, sequence (Q07157 416-512): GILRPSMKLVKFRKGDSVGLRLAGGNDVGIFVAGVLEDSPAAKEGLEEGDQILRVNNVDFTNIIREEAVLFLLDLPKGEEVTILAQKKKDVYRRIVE

Inadl_10, Q8NI35, sequence (Q8NI35 1673-1763): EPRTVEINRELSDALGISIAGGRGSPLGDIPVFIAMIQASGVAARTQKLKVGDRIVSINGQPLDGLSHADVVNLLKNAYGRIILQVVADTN
NOS1, P29475, sequence (P29475 9-101): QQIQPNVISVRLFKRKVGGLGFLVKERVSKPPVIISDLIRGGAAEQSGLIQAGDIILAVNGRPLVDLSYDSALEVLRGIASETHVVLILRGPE
PTPN3, P26045, sequence (P26045 505-587): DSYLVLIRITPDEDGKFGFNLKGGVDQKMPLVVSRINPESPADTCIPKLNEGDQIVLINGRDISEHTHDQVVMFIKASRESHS
SCRIB_1, Q14160, sequence (Q14160 718-814): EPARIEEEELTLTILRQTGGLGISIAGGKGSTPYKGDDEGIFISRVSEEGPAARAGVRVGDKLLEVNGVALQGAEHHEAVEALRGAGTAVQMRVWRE
PICK1, Q9NRD5, sequence (Q9NRD5 17-115): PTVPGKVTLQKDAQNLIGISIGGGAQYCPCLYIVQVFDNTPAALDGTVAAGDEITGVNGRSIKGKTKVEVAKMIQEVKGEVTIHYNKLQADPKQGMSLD
Inadl_4, Q8NI35, sequence (Q8NI35 547-651): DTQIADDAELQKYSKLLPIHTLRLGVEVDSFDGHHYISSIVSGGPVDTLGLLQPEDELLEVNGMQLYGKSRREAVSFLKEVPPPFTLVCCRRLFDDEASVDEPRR
IL16_3, Q14005, sequence (Q14005 1107-1207): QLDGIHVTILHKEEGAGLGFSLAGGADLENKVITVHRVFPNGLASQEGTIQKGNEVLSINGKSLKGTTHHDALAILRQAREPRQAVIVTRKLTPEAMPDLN
NHERF4_2, Q86UT5, sequence (Q86UT5 220-308): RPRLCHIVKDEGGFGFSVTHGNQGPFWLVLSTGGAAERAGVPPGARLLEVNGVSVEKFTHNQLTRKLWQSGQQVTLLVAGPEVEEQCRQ
MAGI2_6, Q86UL8, sequence (Q86UL8 1141-1229): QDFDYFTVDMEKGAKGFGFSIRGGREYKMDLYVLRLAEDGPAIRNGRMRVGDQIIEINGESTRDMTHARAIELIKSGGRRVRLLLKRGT
GIPC2, Q8TF65, sequence (Q8TF65 112-203): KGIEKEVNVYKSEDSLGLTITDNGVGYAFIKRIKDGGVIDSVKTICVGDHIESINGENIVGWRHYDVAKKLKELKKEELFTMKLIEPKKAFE
CASK, O14936, sequence (O14936 487-570): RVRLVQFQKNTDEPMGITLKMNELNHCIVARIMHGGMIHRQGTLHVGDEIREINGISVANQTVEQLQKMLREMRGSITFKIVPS

Binder | pKd [1] | pKd [2] | pKd [3] | pKd [4] | pKd [5] | pKd [6] | pKd [7] | pKd [8] | pKd [9] | pKd [10] | pKd [11] | pKd [12] | pKd [13] | pKd [14] | pKd [15] | pKd [16] | pKd [17] | pKd [18] | pKd [19] | pKd [20] | also measured
HLSTRQGTCV [ATRNL1, Q5VV63] | 4.45 | 4.05 | below the threshold | below the threshold | below the threshold | below the threshold | 5.01 | below the threshold | 4.18 | below the threshold | 4.02 | below the threshold | below the threshold | 3.99 | below the threshold | 4.07 | below the threshold | 4.54 | 4 | below the threshold | pKd [21]: 3.67; pKd [22]: below the threshold; pKd [23]: 3.76; pKd [24]: 4.55; pKd [25]: 3.66; pKd [26]: below the threshold; pKd [27]: below the threshold
HYPASPDSWV [CTNND2, Q9UQB3] | 5.66 | 5.06 | below the threshold | 3.53 | 3.55 | 4.64 | 4.72 | below the threshold | 4.07 | 4.91 | 3.68 | below the threshold | below the threshold | 4.23 | 4.17 | 3.86 | below the threshold | 5.07 | 5.37 | 3.61 | pKd [21]: 4.65; pKd [22]: below the threshold; pKd [23]: below the threshold; pKd [24]: 4.65; pKd [25]: 4.06; pKd [26]: below the threshold; pKd [27]: 3.81
VCMGDHWFDV [PRKN, O60260] | 4.49 | 4.14 | below the threshold | below the threshold | below the threshold | 3.81 | 4.57 | 3.54 | below the threshold | 4.57 | 4.18 | below the threshold | below the threshold | below the threshold | below the threshold | 3.51 | 4.83 | 3.49 | 4.19 | 3.83 | pKd [21]: below the threshold; pKd [22]: below the threshold; pKd [23]: below the threshold; pKd [24]: below the threshold; pKd [25]: 3.55; pKd [26]: below the threshold; pKd [27]: below the threshold
QRYPGNQTTC [CCL24, O00175] | 3.74 | below the threshold | below the threshold | below the threshold | below the threshold | below the threshold | 3.58 | below the threshold | 3.71 | below the threshold | below the threshold | 3.58 | below the threshold | 3.6 | below the threshold | below the threshold | below the threshold | 3.66 | below the threshold | below the threshold | pKd [21]: below the threshold; pKd [22]: below the threshold; pKd [23]: below the threshold; pKd [24]: below the threshold; pKd [25]: 3.92; pKd [26]: below the threshold; pKd [27]: below the threshold
KLQNPNQSVV [TYRP1, P17643] | below the threshold | 4.04 | below the threshold | below the threshold | below the threshold | 3.47 | 4.32 | below the threshold | 3.83 | below the threshold | 3.9 | below the threshold | below the threshold | 3.72 | 4.19 | below the threshold | below the threshold | below the threshold | below the threshold | 3.67 | pKd [21]: below the threshold; pKd [22]: below the threshold; pKd [23]: 3.72; pKd [24]: 4.06; pKd [25]: 3.52; pKd [26]: below the threshold; pKd [27]: below the threshold
PKSNSSKEYV [CLDN7, O95471] | 3.8 | below the threshold | below the threshold | below the threshold | below the threshold | below the threshold | below the threshold | below the threshold | below the threshold | below the threshold | below the threshold | below the threshold | below the threshold | below the threshold | below the threshold | 3.57 | below the threshold | below the threshold | below the threshold | below the threshold | pKd [21]: below the threshold; pKd [22]: below the threshold; pKd [23]: 3.7; pKd [24]: below the threshold; pKd [25]: below the threshold; pKd [26]: below the threshold; pKd [27]: below the threshold

Source: PMC9482650, “Quantitative fragmentomics allow affinity mapping of interactomes” (Nature Communications, 2022)
